Results: patent US20130122545A1

B1: Aspergillus niger 19 kDa protease (protein)
chain: SPIPSYSRPGRGQHFQDAYGFAEACIAGDRMEIAGQTGMSPTSTEVPPTLEEEVAQAFNNINEVILYTLEKAKPDLRASVKSGWDRVVKIRTYHVQLPQTREKIIGLMVENVKKWCPDHQPTWTMLGIEALPFEGQNLEIEVDVFLG

Legend:
[1] = target: Aspergillus niger 19 kDa protease (Aspergillus niger); experiment: cell-based or functional assay
Suc-LLVY-MCA = target: T1, Suc-LLVY-MCA
T1 chain: LLVY

Glt-AAF-MCA = target: T2, Glt-AAF-MCA
T2 chain: AAF

Suc(OMe)-AAPV-MCA = target: T3, Suc(OMe)-AAPV-MCA
T3 chain: AAPV

Boc-FSR-MCA = target: T4, Boc-FSR-MCA
T4 chain: FSR

Z-LLE-MCA = target: T5, Z-LLE-MCA
T5 chain: LLE

| Molecule | residual activity (%) [1] [%] | substrate specificity: increase of fluorescent strength, relative (column has no head) (Suc-LLVY-MCA) [%] | substrate specificity: increase of fluorescent strength, relative (column has no head) (Glt-AAF-MCA) [%] | substrate specificity: increase of fluorescent strength, relative (column has no head) (Suc(OMe)-AAPV-MCA) [%] | substrate specificity: increase of fluorescent strength, relative (column has no head) (Boc-FSR-MCA) [%] | substrate specificity: increase of fluorescent strength, relative (column has no head) (Z-LLE-MCA) [%] |
| --- | --- | --- | --- | --- | --- | --- |
| leupeptin (peptide) | 89 | – | – | – | – | – |
| pepstatin A (peptide) | 91 | – | – | – | – | – |
| B1 | – | 100.0 | 1.6 | 0.2 | 0.3 | 0.1 |
